Results reported in patent US20260167710A1 (GlaxoSmithKline, published 2026).

Assays:
[1] = target: T1, cynomolgus recombinant neonatal receptor (FcRn) (cynomolgus monkey, UniProt Q8SPV9 24-297; Q8SPW0 21-119); experiment: SPR (ProteOn XPR36), antibody captured by protein L, FcRn as analyte, equilibrium fit, pH 7.4, 25 C
T1 construct: extracellular domain; beta-2-microglobulin is not mentioned; also called cyno FcRn; cynomolgus monkey FcRn

[2] = target: T2, human recombinant neonatal receptor (FcRn) (human, UniProt P55899 24-297; P61769 21-119); experiment: as above
T2 construct: also called human FcRn; human recombinant soluble FcRn

[3] = target: T3, human IL-33 (human, Biotinylated in Example 2; the site is not stated.); experiment: cell-based or functional assay
T3 chain: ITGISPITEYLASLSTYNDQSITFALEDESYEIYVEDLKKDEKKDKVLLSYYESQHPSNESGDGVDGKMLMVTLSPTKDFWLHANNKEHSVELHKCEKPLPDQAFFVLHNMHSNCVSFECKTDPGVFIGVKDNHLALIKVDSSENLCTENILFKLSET

[4] = target: T3, human IL-33; experiment: cell-based or functional assay
[5] = target: T3, human IL-33; experiment: cell-based or functional assay

T2 sequence (P55899 24-297 limits assumed, chain 1 of 2): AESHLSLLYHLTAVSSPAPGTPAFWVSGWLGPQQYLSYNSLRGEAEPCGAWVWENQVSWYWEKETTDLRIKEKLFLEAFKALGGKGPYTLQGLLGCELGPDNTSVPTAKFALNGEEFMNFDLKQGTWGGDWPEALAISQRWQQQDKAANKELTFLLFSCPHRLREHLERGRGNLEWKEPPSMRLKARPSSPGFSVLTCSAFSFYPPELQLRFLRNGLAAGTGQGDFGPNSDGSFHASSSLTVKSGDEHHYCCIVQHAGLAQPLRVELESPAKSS
T2 sequence (P61769 21-119 limits assumed, chain 2 of 2): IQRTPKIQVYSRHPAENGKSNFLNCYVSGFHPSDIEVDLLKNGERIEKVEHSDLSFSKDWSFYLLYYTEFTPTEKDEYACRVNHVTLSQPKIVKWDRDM
T1 sequence (Q8SPV9 24-297 limits assumed, chain 1 of 2): as the sequence (P55899 24-297 limits assumed, chain 1 of 2) above, with N39D, E44Q, G99S, S189G, S190N, L217M, S269T counted along it
T1 sequence (Q8SPW0 21-119 limits assumed, chain 2 of 2): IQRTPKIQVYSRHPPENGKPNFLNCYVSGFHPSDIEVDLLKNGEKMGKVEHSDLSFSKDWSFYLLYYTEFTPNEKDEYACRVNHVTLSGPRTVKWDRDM

B1: 22A06-458 (antibody, human IgG1, kappa)
heavy: QVQLVQSGAEVKKPGASVKVSCKASGYTFISYGMHWVRQAPGQGLEWMGEINPHGGSTSYAQKFKGRVTMTRDTSTSTVYMELSSLRSEDTAVYYCARPSAAYSHYLGIDLWGRGTLVTVSSASTKGPSVFPLAPSSKSTSGGTAALGCLVKDYFPEPVTVSWNSGALTSGVHTFPAVLQSSGLYSLSSVVTVPSSSLGTQTYICNVNHKPSNTKVDKKVEPKSCDKTHTCPPCPAPELLGGPSVFLFPPKPKDTLYITREPEVTCVVVDVSHEDPEVKFNWYVDGVEVHNAKTKPREEQYNSTYRVVSVLTVLHQDWLNGKEYKCKVSNKALPAPIEKTISKAKGQPREPQVYTLPPSRDELTKNQVSLTCLVKGFYPSDIAVEWESNGQPENNYKTTPPVLDSDGSFFLYSKLTVDKSRWQQGNVFSCSVMHEALHNHYTQKSLSLSPGK
light: DIQMTQSPSSVSASVGDRVTITCRASQGISSWLAWYQQKPGKAPKLLIYAASRLQSGVPSRFSGSGSGTDFTLTISSLQPEDFATYYCQQANVFPLTFGGGTKVEIKRTVAAPSVFIFPPSDEQLKSGTASVVCLLNNFYPREAKVQWKVDNALQSGNSQESVTEQDSKDSTYSLSSTLTLSKADYEKHKVYACEVTHQGLSSPVTKSFNRGEC
In the case of B1, the Kd [1] is reported as 2560 nM, the Kd [2] is reported as 1230 nM and the “IC50, inhibition of IL-33 (500 pM) induced IL-6 secretion from HUVECs, pre-complexed, Mean” value [3] is reported as 217 pM. For the same binder, the “IC50, inhibition of IL-33 (500 pM) induced IL-6 secretion from HUVECs, pre-complexed, P7” value [3] was 214 pM, the “IC50, inhibition of IL-33 (500 pM) induced IL-6 secretion from HUVECs, pre-complexed, P8” value [3] was 204 pM and the “IC50, inhibition of IL-33 (500 pM) induced IL-6 secretion from HUVECs, pre-complexed, P9” value [3] was 234 pM. For the same binder, the “IC50, inhibition of IL-33 (500 pM) induced IL-8 secretion from HUVECs, pre-complexed, Mean” value [3] was 390 pM, the “IC50, inhibition of IL-33 (500 pM) induced IL-8 secretion from HUVECs, pre-complexed, P7” value [3] was 489 pM and the “IC50, inhibition of IL-33 (500 pM) induced IL-8 secretion from HUVECs, pre-complexed, P8” value [3] was 278 pM. For the same binder, the “IC50, inhibition of IL-33 (500 pM) induced IL-8 secretion from HUVECs, pre-complexed, P9” value [3] was 402 pM, the “pIC50, inhibition of IL-33 (500 pM) induced IL-6 secretion from HUVECs, pre-complexed, Mean” value [3] was 9.66 and the “pIC50, inhibition of IL-33 (500 pM) induced IL-6 secretion from HUVECs, pre-complexed, P7” value [3] was 9.67. For the same binder, the “pIC50, inhibition of IL-33 (500 pM) induced IL-6 secretion from HUVECs, pre-complexed, P8” value [3] was 9.69, the “pIC50, inhibition of IL-33 (500 pM) induced IL-6 secretion from HUVECs, pre-complexed, P9” value [3] was 9.63 and the “pIC50, inhibition of IL-33 (500 pM) induced IL-8 secretion from HUVECs, pre-complexed, Mean” value [3] was 9.42. For the same binder, the “pIC50, inhibition of IL-33 (500 pM) induced IL-8 secretion from HUVECs, pre-complexed, P7” value [3] was 9.31, the “pIC50, inhibition of IL-33 (500 pM) induced IL-8 secretion from HUVECs, pre-complexed, P8” value [3] was 9.56 and the “pIC50, inhibition of IL-33 (500 pM) induced IL-8 secretion from HUVECs, pre-complexed, P9” value [3] was 9.4. For the same binder, the “IC50, inhibition of 10 ng/mL IL-33 induced IFN-γ secretion from whole blood, non-pre-complexed, Mean” value [4] was 0.37 nM, the “IC50, inhibition of 10 ng/mL IL-33 induced IFN-γ secretion from whole blood, non-pre-complexed, donor #32871” value [4] was 0.21 nM and the “IC50, inhibition of 10 ng/mL IL-33 induced IFN-γ secretion from whole blood, non-pre-complexed, donor #90237” value [4] was 0.73 nM. For the same binder, the “IC50, inhibition of 10 ng/mL IL-33 induced IFN-γ secretion from whole blood, non-pre-complexed, donor #91680” value [4] was 0.43 nM, the “IC50, inhibition of 10 ng/mL IL-33 induced IFN-γ secretion from whole blood, non-pre-complexed, donor #91955” value [4] was 0.08 nM and the “IC50, inhibition of 10 ng/mL IL-33 induced IFN-γ secretion from whole blood, non-pre-complexed, donor #91986” value [4] was 0.36 nM. For the same binder, the “IC50, inhibition of 10 ng/mL IL-33 induced IFN-γ secretion from whole blood, non-pre-complexed, donor #92251” value [4] was 0.42 nM, the “pIC50, inhibition of 10 ng/mL IL-33 induced IFN-γ secretion from whole blood, non-pre-complexed, Mean” value [4] was 9.51 and the “pIC50, inhibition of 10 ng/mL IL-33 induced IFN-γ secretion from whole blood, non-pre-complexed, donor #32871” value [4] was 9.67. For the same binder, the “pIC50, inhibition of 10 ng/mL IL-33 induced IFN-γ secretion from whole blood, non-pre-complexed, donor #90237” value [4] was 9.13, the “pIC50, inhibition of 10 ng/mL IL-33 induced IFN-γ secretion from whole blood, non-pre-complexed, donor #91680” value [4] was 9.37 and the “pIC50, inhibition of 10 ng/mL IL-33 induced IFN-γ secretion from whole blood, non-pre-complexed, donor #91955” value [4] was 10.1. The “pIC50, inhibition of 10 ng/mL IL-33 induced IFN-γ secretion from whole blood, non-pre-complexed, donor #91986” value [4] was 9.44, the “pIC50, inhibition of 10 ng/mL IL-33 induced IFN-γ secretion from whole blood, non-pre-complexed, donor #92251” value [4] was 9.37 and the “IC50, inhibition of 30 ng/mL IL-33/IL-12 induced IFN-γ secretion from whole blood, pre-complexed, Mean” value [5] was 3.24 nM. For the same binder, the “IC50, inhibition of 30 ng/mL IL-33/IL-12 induced IFN-γ secretion from whole blood, pre-complexed, donor #91232” value [5] was 1.47 nM, the “IC50, inhibition of 30 ng/mL IL-33/IL-12 induced IFN-γ secretion from whole blood, pre-complexed, donor #91845” value [5] was 3.88 nM and the “IC50, inhibition of 30 ng/mL IL-33/IL-12 induced IFN-γ secretion from whole blood, pre-complexed, donor #92023” value [5] was 2.48 nM. For the same binder, the “IC50, inhibition of 30 ng/mL IL-33/IL-12 induced IFN-γ secretion from whole blood, pre-complexed, donor #92187” value [5] was 4.92 nM, the “IC50, inhibition of 30 ng/mL IL-33/IL-12 induced IFN-γ secretion from whole blood, pre-complexed, donor #92257” value [5] was 1.75 nM and the “IC50, inhibition of 30 ng/mL IL-33/IL-12 induced IFN-γ secretion from whole blood, pre-complexed, donor #92258” value [5] was 4.93 nM. For the same binder, the “pIC50, inhibition of 30 ng/mL IL-33/IL-12 induced IFN-γ secretion from whole blood, pre-complexed, Mean” value [5] was 8.53, the “pIC50, inhibition of 30 ng/mL IL-33/IL-12 induced IFN-γ secretion from whole blood, pre-complexed, donor #91232” value [5] was 8.83 and the “pIC50, inhibition of 30 ng/mL IL-33/IL-12 induced IFN-γ secretion from whole blood, pre-complexed, donor #91845” value [5] was 8.41. For the same binder, the “pIC50, inhibition of 30 ng/mL IL-33/IL-12 induced IFN-γ secretion from whole blood, pre-complexed, donor #92023” value [5] was 8.6.
